T1: human CDH6 (full-length, on cells) (human, UniProt P55285 54-790)
T1 construct: also called hCDH6; full-length hCDH6
T1 sequence: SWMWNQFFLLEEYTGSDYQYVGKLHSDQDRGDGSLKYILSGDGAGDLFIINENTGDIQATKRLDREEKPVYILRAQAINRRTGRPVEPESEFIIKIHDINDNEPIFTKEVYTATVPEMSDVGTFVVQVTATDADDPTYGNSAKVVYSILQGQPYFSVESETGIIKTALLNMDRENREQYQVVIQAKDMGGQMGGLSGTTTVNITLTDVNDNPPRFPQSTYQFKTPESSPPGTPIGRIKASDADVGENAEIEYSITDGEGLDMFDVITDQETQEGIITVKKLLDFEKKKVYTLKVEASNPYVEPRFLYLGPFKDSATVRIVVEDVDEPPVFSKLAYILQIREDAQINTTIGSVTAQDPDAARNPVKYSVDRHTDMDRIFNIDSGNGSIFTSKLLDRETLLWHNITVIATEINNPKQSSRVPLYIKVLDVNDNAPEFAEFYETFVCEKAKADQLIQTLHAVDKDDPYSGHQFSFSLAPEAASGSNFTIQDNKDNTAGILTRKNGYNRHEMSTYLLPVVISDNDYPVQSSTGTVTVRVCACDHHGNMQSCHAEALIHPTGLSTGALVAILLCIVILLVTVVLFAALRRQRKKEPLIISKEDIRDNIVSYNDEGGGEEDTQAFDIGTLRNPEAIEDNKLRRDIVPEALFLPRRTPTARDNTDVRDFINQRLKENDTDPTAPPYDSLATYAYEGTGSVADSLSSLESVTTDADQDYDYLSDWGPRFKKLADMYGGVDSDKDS

T2: EC3 deletion mutant of human CDH6 (human, UniProt P55285 54-790)
T2 construct: In p3×FLAG-CMV-9; also called EC3-deleted hCDH6
T2 sequence: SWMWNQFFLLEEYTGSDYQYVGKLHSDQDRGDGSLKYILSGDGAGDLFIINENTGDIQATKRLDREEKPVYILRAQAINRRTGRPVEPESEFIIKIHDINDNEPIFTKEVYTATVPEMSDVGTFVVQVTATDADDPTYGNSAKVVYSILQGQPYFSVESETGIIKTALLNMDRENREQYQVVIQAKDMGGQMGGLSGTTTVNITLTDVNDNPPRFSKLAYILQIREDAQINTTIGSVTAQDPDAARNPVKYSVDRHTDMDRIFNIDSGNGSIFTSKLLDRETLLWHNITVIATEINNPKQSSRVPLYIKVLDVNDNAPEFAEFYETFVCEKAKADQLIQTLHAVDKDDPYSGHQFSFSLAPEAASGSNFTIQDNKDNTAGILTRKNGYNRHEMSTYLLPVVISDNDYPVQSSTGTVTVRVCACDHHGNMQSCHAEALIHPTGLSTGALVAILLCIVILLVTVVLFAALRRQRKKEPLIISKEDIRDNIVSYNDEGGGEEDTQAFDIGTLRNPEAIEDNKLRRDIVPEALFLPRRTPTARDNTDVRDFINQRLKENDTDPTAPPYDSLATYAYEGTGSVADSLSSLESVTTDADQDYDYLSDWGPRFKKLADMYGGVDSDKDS


Assays:
[1] = target: T1, human CDH6 (full-length, on cells); test: competition flow cytometry on 786-O/hCDH6 cells; competitor: Alexa 488-labeled H01L02 at 5 nM; unlabeled antibody varied [lower panel]
Method: Thereafter, the cells were suspended by the addition of labeled NOV0712 or labeled H01L02 (final concentration: 5 nM) and, further, the addition of each of the 4 humanized hG019 antibodies (clone Nos: H01L02, H02L02, H02L03 and H04L02), which had been prepared in Example 5)-5-3, or the anti-CDH6 antibody NOV0712, which had been prepared in Reference Example 1, or human IgG1 (Calbiochem) as a negative control (final concentration: as shown in the abscissa of FIG. 9). The cells were left standing at 4° C. for 1 hour. Thereafter, the cells were washed twice with PBS supplemented with 5% FBS, followed by detection using a flow cytometer (Canto II; BD Biosciences). The data was analyzed using FlowJo (Tree Star, Inc.). The abscissa depicts the final concentration of the added unlabeled antibody, and the ordinate depicts the amount of the antibody bound based on mean fluorescence intensity. When unlabeled NOV0712 is added to cells supplemented with labeled NOV0712, the amount of the labeled antibody bound is decreased by replacement with the unlabeled antibody in an addition concentration-dependent manner because they compete with each other for binding to the same epitope. […] Likewise, when each of the 4 unlabeled humanized hG019 antibodies is added to cells supplemented with labeled H01L02, the amount of the labeled antibody bound is decreased by replacement with the unlabeled antibody in an addition concentration-dependent manner because they compete with each other for binding to the same epitope.

[2] = target: T2, EC3 deletion mutant of human CDH6; test: flow cytometry; 293α cells transfected with EC3-deleted hCDH6 (open) vs untransfected control cells (shaded); APC anti-human IgG
Method: The cells were cultured overnight under conditions of 37° C. and 5% CO₂, and thereafter, a cell suspension was prepared. […] Thereafter, the cells were suspended by the addition of each of the 4 humanized hG019 antibodies (clone Nos: H01L02, H02L02, H02L03 and H04L02), which had been prepared in Example 5)-5-3, or the anti-CDH6 antibody NOV0712, which had been prepared in Reference Example 1, or human IgG1 (Calbiochem) as a negative control. The cells were left standing at 4° C. for 1 hour. The cells were washed twice with PBS supplemented with 5% FBS, and then suspended by the addition of APC-anti-human IgG goat F(ab′)2 (Jackson ImmunoResearch Laboratories, Inc.) that had been 500-fold diluted with PBS supplemented with 5% FBS. The cells were left standing at 4° C. for 1 hour. The cells were washed twice with PBS supplemented with 5% FBS, followed by detection using a flow cytometer (Canto II; BD Biosciences). The data was analyzed using FlowJo (Tree Star, Inc.). In the histograms of FIGS. 7-1 to 7-6, the abscissa depicts APC fluorescence intensity indicating the amount of the antibody bound, and the ordinate depicts cell count. […] Fluorescence intensity is enhanced when the antibody binds to full-length hCDH6 or each EC domain deletion mutant on cell surface. The human IgG1 control binds to none of the transfected cells.

Binder	IC50 (read off the curve) [1] [nM]	binding result [2]
H02L02 antibody (antibody, human IgG1, kappa, V domains shown, Humanized IgG1/kappa (hH02 + hL02); also called humanized hG019 antibody H02L02) VH: EVQLVQSGAEVKKPGASVKVSCKASGYTFTRNFMHWVRQAPGQGLEWMGWIYPGDGETEYNQKFQGRVTITADRSTSTAYMELSSLRSEDTAVYFCARGVYGGFAGGYFDFWGQGTLVTVSS VL: DIQMTQSPSSLSASVGDRVTITCKASQNIYKNLAWYQQKPGKAPKLLIYDANTLQTGVPSRFSGSGSGSDFTLTISSLQPEDFATYFCQQYYSGWAFGQGTKVEIKR	~3	no binding (tested: not given (single concentration))
H01L02 antibody (antibody, human IgG1, kappa, V domains shown, Humanized IgG1/kappa (hH01 + hL02); also called humanized hG019 antibody H01L02; labeled H01L02) VH: EVQLVQSGAEVKKPGASVKVSCKASGYTFTRNFMHWVRQAPGQGLEWMGWIYPGDGETEYAQKFQGRVTITADTSTSTAYMELSSLRSEDTAVYYCARGVYGGFAGGYFDFWGQGTLVTVSS VL: DIQMTQSPSSLSASVGDRVTITCKASQNIYKNLAWYQQKPGKAPKLLIYDANTLQTGVPSRFSGSGSGSDFTLTISSLQPEDFATYFCQQYYSGWAFGQGTKVEIKR	~5	no binding (tested: not given (single concentration))
H02L03 antibody (antibody, human IgG1, kappa, V domains shown, Humanized IgG1/kappa (hH02 + hL03); also called humanized hG019 antibody H02L03) VH: EVQLVQSGAEVKKPGASVKVSCKASGYTFTRNFMHWVRQAPGQGLEWMGWIYPGDGETEYNQKFQGRVTITADRSTSTAYMELSSLRSEDTAVYFCARGVYGGFAGGYFDFWGQGTLVTVSS VL: DIQMTQSPSSLSASVGDRVTITCKASQNIYKNLAWYQQKLGEGPKLLIYDANTLQTGVPSRFSGSGSGTDFTLTISSLQPEDFATYYCQQYYSGWAFGQGTKVEIKR	~10	no binding (tested: not given (single concentration))
H04L02 antibody (antibody, human IgG1, kappa, V domains shown, Humanized IgG1/kappa (hH04 + hL02); also called humanized hG019 antibody H04L02) VH: QVQLVQSGAEVKKPGASVKVSCKASGYTFTRNFMHWIRQAPGQGLEWMGWIYPGDGETEYAQKFQGRVTLTADRSTSTAYMELSSLRSEDTAVYYCARGVYGGFAGGYFDFWGQGTLVTVSS VL: DIQMTQSPSSLSASVGDRVTITCKASQNIYKNLAWYQQKPGKAPKLLIYDANTLQTGVPSRFSGSGSGSDFTLTISSLQPEDFATYFCQQYYSGWAFGQGTKVEIKR	~10	no binding (tested: not given (single concentration))

From patent US20200171163A1 (Daiichi Sankyo, published 2020)
